Where a chain is given by its changes, count along the chain named.

The source of these data is patent US20250042994A1 (HAINAN SIMCERE ZAIMING PHARMACEUTICAL, published 2025).

The target of test [1] is T1, human CD19 exon1-3-his protein (human, UniProt P15391 20-186, limits assumed).
T1 construct: made in HEK293E cells; also called membrane-distal end; not shown: His tag
T1 sequence (looked up): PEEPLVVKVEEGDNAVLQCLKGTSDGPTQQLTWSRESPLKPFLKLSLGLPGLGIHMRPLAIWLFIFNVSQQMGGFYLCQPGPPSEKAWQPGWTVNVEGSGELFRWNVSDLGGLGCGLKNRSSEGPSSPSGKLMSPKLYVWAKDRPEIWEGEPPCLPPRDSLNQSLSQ
In words: ELISA, coated at 2 ug/mL.

For a further test, the target named is T2, murine CD19 protein (murine, UniProt P25918 17-287, limits assumed).
T2 construct: bought protein; also called commercial murine CD19
T2 sequence (looked up): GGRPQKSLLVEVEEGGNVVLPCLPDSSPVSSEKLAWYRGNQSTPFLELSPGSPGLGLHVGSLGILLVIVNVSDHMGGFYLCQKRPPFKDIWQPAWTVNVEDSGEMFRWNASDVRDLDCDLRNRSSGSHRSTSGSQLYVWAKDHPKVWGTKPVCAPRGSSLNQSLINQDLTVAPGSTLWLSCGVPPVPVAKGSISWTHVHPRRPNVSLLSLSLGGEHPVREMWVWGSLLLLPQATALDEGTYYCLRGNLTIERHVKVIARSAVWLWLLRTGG
Kind of test: ELISA. Here is the method:
Human CD19-his protein (purchased from ACROBiosystems, catalog number: CD9-H52H2) was diluted with PBS to a final concentration of 4 μg/mL, and then added to a 96-well ELISA plate at 100 μl/well. The plate was sealed with a plastic film and incubated overnight at 4° C., the plate was washed 2 times with PBS the next day, and then a blocking solution [PBS+2% (w/w) BSA] was added for blocking at room temperature for 2 h. The blocking solution was poured off, and 100 nM gradiently diluted CD19 chimeric antibody or control antibody was added at 50 μl/well. After incubation at 37° C. for 2 h, the plate was washed 3 times with PBS. […] TMB substrate was added at 50 μl/well, and incubated at room temperature for 10 min, and then a stop solution (1.0 N HCl) was added at 50 μl/well. The OD450 nm values were read by an ELISA microplate reader (Multimode Plate Reader, EnSight, purchased from Perkin Elmer).
In order to detect the species cross-binding activity of the chimeric antibodies, an ELISA plate was coated with commercial murine CD19 (ACROBiosystems, catalog number: 50510-M08H) and monkey CD19 (ACROBiosystems, catalog number: 90051-C08H), respectively, and the ELISA detection was performed according to the method in example 5.1. […]
(An ELISA detects its analyte on a solid surface through an enzyme-linked reagent.)

The next test addresses T3, Human CD19-his protein (human, UniProt P15391 20-291).
T3 construct: bought protein; also called recombinant human CD19-His; CD19 full-length protein; not shown: His tag
T3 sequence (looked up): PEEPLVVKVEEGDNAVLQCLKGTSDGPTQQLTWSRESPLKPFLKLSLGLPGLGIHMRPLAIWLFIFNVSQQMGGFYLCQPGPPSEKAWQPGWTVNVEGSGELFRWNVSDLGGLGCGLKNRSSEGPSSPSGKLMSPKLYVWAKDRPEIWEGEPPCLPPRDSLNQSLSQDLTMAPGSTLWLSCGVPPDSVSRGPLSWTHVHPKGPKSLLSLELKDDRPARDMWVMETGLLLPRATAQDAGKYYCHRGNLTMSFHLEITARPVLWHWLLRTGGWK
In words: SPR Biacore, Ab captured on Protein A, CD19-His analyte. The method in brief: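 Antibodies were captured on a Protein A chip at 25 °C in HBS-EP+. Human CD19-His was injected for 240 s at 30 μl/min at 5 concentrations from 200 nM (1:1 dilutions), with dissociation up to 600 s. Data were double-referenced and fitted to a Langmuir 1:1 model for apparent KD.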
On the technique in general: In SPR one partner is held on a chip, and binding of the other changes the refractive index at the surface.

The target of a further test is T4, monkey CD19-His protein (monkey).
T4 construct: bought protein; also called monkey CD19 protein
In words: SPR Biacore, method of example 7.1, monkey CD19-His. The method, then: A sample buffer and a running buffer were HBS-EP+ (10 mM HEPES, 150 mM NaCl, 3 mM EDTA and 0.05% surfactant P20) (GE Healthcare; BR-1006-69). The flow-through cell was set to 25° C. The sample block was set to 16° C. Both were pretreated with the running buffer. In each cycle, an antibody to be detected was first captured with a Protein A chip, and then a single concentration of CD19 antigen protein was injected. The binding and dissociation processes of the antibody and the antigen protein were recorded, and finally Glycine pH 1.5 (GE Healthcare; BR-1003-54) was used to complete chip regeneration. The binding was measured by injecting different concentrations of recombinant human CD19-His proteins in a solution for 240 s with a flow rate of 30 μl/min. The concentration started from 200 nM (see the detailed results for the actual concentration in the test) and was diluted at 1:1, making a total of 5 concentrations. The dissociation phase was monitored for up to 600 s and was triggered by switching from sample solution to running buffer. The surface was regenerated by washing with a 10 mM glycine solution (pH 1.5) for 30 s at a flow rate of 30 μl/min. Bulk refractive index difference was corrected by subtracting the response obtained from the goat anti-human Fc surface. Blank injection was also subtracted (=double reference). For calculation of apparent KD and other kinetic parameters, Langmuir 1:1 model was used.
According to the method in example 7.1, the affinity of the chimeric antibodies to monkey CD19 (ACROBiosystems, catalog number: 90051-C08H) protein was determined.

The target in test [2] is T5, human CD19 exon1-3-His tag protein (human, UniProt P15391 20-186, limits assumed).
T5 construct: membrane-distal part of the extracellular region, made in HEK293E cells; not shown: His tag
T5 sequence (looked up): T1 sequence (looked up)
Kind of test: ELISA on coated human CD19 exon 1-3-His.

B1: F3.121.4-L3H3 (antibody, mouse IgG1, kappa)
heavy: EVQLVQSGAEVKKPGASVKVSCKASGYTFTNYWMHWVRQRPGQGLEWMGEIDPSDNYANYNQEFQGRVTITVDKSASTAYMELSSLRSEDTAVYYCARHDGYFGALDYWGQGTTVTVSSAKTTPPSVYPLAPGSAAQTNSMVTLGCLVKGYFPEPVTVTWNSGSLSSGVHTFPAVLQSDLYTLSSSVTVPSSTWPSETVTCNVAHPASSTKVDKKIVPRDCGCKPCICTVPEVSSVFIFPPKPKDVLTITLTPKVTCVVVDISKDDPEVQFSWFVDDVEVHTAQTQPREEQFNSTFRSVSELPIMHQDWLNGKEFKCRVNSAAFPAPIEKTISKTKGRPKAPQVYTIPPPKEQMAKDKVSLTCMITDFFPEDITVEWQWNGQPAENYKNTQPIMDTDGSYFVYSKLNVQKSNWEAGNTFTCSVLHEGLHNHHTEKSLSHSPGK
light: EIVLTQSPDFQSVTPKEKVTITCSASSSISSNYLHWYQQKPDQSPKFLIYRTSNLASGVPSRFSGSGSGTDFTLTINSLEAEDAATYYCQQASSIPRMFTFGQGTKLEIKRADAAPTVSIFPPSSEQLTSGGASVVCFLNNFYPKDINVKWKIDGSERQNGVLNSWTDQDSKDSTYSMSSTLTLTKDEYERHNSYTCEATHKTSTSPIVKSFNRNEC
notes: murine IgG1 constant regions; also called humanized antibody of F3.121.4
Take B1: the binding result (in test [1]; in the test with murine CD19 protein) was “no binding” in each case.

B2: F3.121.4-L3H4 (antibody, mouse IgG1, kappa)
heavy: B1 heavy with V5Q
light: B1 light
notes: as for B1
B2: the binding result (in test [1]; with murine CD19 protein) was “no binding” throughout.

B3: F3.77.6 (antibody, human IgG1, V domains shown)
VH: EFQLQQSGPELVKPGASVKISCKASGYSFTDYNMNWVKQSNGKSLEWIGTINPNYITSYNQKFKGKATLTVDQSSSTAYMQLNSLTSEDSAVYYCAGDYKGYWGQGTTLTVSS
VL: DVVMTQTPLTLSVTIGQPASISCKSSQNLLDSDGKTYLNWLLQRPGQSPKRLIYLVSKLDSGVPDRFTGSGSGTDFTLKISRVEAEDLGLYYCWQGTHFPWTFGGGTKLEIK
notes: human-murine chimeric antibody, human IgG1 constant
Usually Kd stands for the equilibrium constant for the complex coming apart. One may read the koff as a measure of how fast the partners let go of each other. The kon is a measure of how fast the partners come together. A word on the EC50 (read off the curve): it is the concentration that produces a half-maximal response. Take B3: in the test with Human CD19-his protein, binding was put at a Kd of 2 nM, the koff amounted to 0.000169 s⁻¹ and the kon was found to be 84400 M⁻¹ s⁻¹. In the test with monkey CD19-His protein, this molecule gave a Kd of 0.00759 nM, a koff of 1.4e-07 s⁻¹ and a kon of 18400 M⁻¹ s⁻¹. Further, the “EC50 (read off the curve)” value in test [2] is roughly 0.1 nM.

B4: F3.118.14 (antibody, human IgG1, V domains shown)
VH: QVQLQQSGAELVRPGASVTLSCKASGYTFPDYEIHWVKQTPVHGLEWIGAIDPETGGIGYNQKFTGKAMLTADKSSSTAYMELRSLTSEDSAVYFCTRNYGSRWGQGSTLTVSS
VL: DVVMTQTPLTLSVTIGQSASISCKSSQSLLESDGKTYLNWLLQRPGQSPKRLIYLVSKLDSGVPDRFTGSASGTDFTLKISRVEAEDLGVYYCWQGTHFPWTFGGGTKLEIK
notes: as for B3
As to B4, in the test with Human CD19-his protein, the Kd came out at 6.05 nM, the off-rate constant (koff) worked out at 0.000326 s⁻¹ and the kon is 53900 M⁻¹ s⁻¹. In the test with monkey CD19-His protein, this molecule gave a Kd of 0.00583 nM, a koff of 9.72e-08 s⁻¹ and a kon of 16700 M⁻¹ s⁻¹. For the same molecule, the “EC50 (read off the curve)” value in test [2] was roughly 0.3 nM.

B5: F3.124.7 (antibody, human IgG1, V domains shown)
VH: EVQLQQSGPVLVKPGASVKMSCKASGYTFTDYYMNWVKQRHGKSLEWIGISNPYNGGTSYNQKFKDKATLTVDKSSSTAYMELNSLTSEDSAVYYCAREGGTAQPTSGMDYWGQGTSVTVSS
VL: NIMMTQSPSSLAVSAGEKVTMSCKSSQSVLYSSNQKNYLAWYQQKPGQSPKLLIYWASTRESGVPDRFTGSGSGTDFTLTISSVQPEDPAVYYCHQYRSSYTFGGGTKLEIK
notes: as for B3
With B5, in the test with Human CD19-his protein, the dissociation constant Kd was 1.99 nM, the koff was 0.000138 s⁻¹ and the kon turned out to be 69300 M⁻¹ s⁻¹. For the same molecule, in the test with monkey CD19-His protein, binding was characterised by a dissociation constant (Kd) of 0.803 nM, the off-rate constant (koff) came to 5.62e-05 s⁻¹ and the kon stood at 70000 M⁻¹ s⁻¹. Besides, the “EC50 (read off the curve)” value in test [2] is roughly 0.03 nM.
